# In paper PMC8882007, “Syndapin-2 mediated transcytosis of amyloid-β across the blood–brain barrier” (Brain Communications, 2022):
# Experiments:
# LRP1 = molecular target: T1, LRP1 (Mus musculus, UniProt Q91ZX7); assay: LRP1 expression in BECs treated with Aβ assemblies (Western blot); assay type: cell-based; conditions: 100 nM for 2 h, normalised to GAPDH and untreated cells, n = 3
# T1 construct: endogenous in cells; host or cells: bEnd3 (ATCC CRL-2299)
# Experimental: Polarized bEnd3 were washed twice with PBS and RIPA buffer containing protease inhibitors (1:50) was added directly to the transwell membranes and left on ice for 1 h. Cells were collected, centrifuged and the supernatant was collected for Western blot analysis. WT, KO and APP-PS1 mice were anaesthetized, decapitated and the brains were carefully collected from the skull. Brains were homogenized in a 4-fold excess volume of ice-cold buffer solution: 10 mM HEPES, 141 mM NaCl, 4 mM KCl, 2.8 mM CaCl2, 1 mM MgSO4, 1 mM NaH2PO4 and 10 mM glucose (pH 7.4) in a glass homogenizer (10–15 strokes). Microvessels and capillary-depleted fractions were prepared from WT, KO and APP-PS1 mice brains, as previously described.[28] Homogenate was suspended in an equal volume of 26% (w/v) dextran (64–76 kDa), mixed and centrifuged at 15 800 g for 10 min at 4°C. Pellet containing the brain microvessels was carefully separated from the supernatant containing capillary-depleted brain (parenchyma). Both fractions, microvessels and parenchyma, were washed twice in ice-cold buffered solution by centrifugation at 15 800 g for 10 min. Brain microvessels and parenchyma fractions were resuspended in RIPA lysis buffer containing protease inhibitors, centrifuged for 20 min, and the supernatant used for Western blot analysis. Protein levels in the lysates were determined using a BCA Protein Assay Kit. Lysates were mixed with Laemmli sample buffer, and proteins (25 µg) were separated on 10% SDS polyacrylamide gels and transferred to polyvinylidene difluoride (PVDF) membranes. All membranes were blocked with 5% (w/v) non-fat milk in Tris-buffered saline (TBS) containing 0.1% (w/v) Tween-20 (TBS-T) for 1 h and then incubated at 4°C with the primary antibody overnight. After washing with TBS-T three times for 5 min, membranes were incubated with the corresponding secondary antibody for 1 h at room temperature, washed with TBS-T and imaged using an Odyssey CLx (LI-COR Biosciences). […]
# Cell metabolic activity of BECs was assessed by using the RealTime-Glo™ MT Cell Viability Assay. […]
# [1] = Transmission electron microscopy of Aβ assemblies; assay type: physicochemical; conditions: negative staining, ∼0.5 mg ml^−1 dispersion
# Experimental: Peptide films were then resuspended in dimethyl sulfoxide (DMSO) to 5 mM, bath sonicated for 10 min and vortexed for 30 s. […] Immediately before use, the oligomeric solutions were centrifuged at 14 000 g for 10 min at 4°C (to remove any fibrils that might be present), and the supernatant was diluted to the final experimental concentration. […] TEM imaging was performed using a JOEL JEM-2200FS microscope equipped with a field emission gun at 200 kV, and an in-column Omega filter. TEM microscope was used in energy-filtered mode with the slit inserted to increase image contrast by collecting only elastically scattered electrons. Digital Micrograph™ software (version 3.20) was used for image acquisition and processing. […] For sample preparation, 400 mesh copper grids were glow-discharged for 40 s to render them hydrophilic. […] The grid was blotted with filter paper and immersed in Uranyless staining solution for 40 s for negative staining. The grid was blotted again and dried under vacuum for 1 min.
# LRP1/Rab5 = molecular target: T2, LRP1/Rab5 (Mus musculus, UniProt Q91ZX7); assay: Proximity ligation assay LRP1/Rab5 in BECs treated with Aβ assemblies; assay type: cell-based; conditions: Aβ assemblies at 100 nM for 15 min (Fig. 6B2)
# T2 construct: endogenous in cells; host or cells: bEnd3 (ATCC CRL-2299)
# T2 sequence (Q91ZX7 20-3944 limits assumed): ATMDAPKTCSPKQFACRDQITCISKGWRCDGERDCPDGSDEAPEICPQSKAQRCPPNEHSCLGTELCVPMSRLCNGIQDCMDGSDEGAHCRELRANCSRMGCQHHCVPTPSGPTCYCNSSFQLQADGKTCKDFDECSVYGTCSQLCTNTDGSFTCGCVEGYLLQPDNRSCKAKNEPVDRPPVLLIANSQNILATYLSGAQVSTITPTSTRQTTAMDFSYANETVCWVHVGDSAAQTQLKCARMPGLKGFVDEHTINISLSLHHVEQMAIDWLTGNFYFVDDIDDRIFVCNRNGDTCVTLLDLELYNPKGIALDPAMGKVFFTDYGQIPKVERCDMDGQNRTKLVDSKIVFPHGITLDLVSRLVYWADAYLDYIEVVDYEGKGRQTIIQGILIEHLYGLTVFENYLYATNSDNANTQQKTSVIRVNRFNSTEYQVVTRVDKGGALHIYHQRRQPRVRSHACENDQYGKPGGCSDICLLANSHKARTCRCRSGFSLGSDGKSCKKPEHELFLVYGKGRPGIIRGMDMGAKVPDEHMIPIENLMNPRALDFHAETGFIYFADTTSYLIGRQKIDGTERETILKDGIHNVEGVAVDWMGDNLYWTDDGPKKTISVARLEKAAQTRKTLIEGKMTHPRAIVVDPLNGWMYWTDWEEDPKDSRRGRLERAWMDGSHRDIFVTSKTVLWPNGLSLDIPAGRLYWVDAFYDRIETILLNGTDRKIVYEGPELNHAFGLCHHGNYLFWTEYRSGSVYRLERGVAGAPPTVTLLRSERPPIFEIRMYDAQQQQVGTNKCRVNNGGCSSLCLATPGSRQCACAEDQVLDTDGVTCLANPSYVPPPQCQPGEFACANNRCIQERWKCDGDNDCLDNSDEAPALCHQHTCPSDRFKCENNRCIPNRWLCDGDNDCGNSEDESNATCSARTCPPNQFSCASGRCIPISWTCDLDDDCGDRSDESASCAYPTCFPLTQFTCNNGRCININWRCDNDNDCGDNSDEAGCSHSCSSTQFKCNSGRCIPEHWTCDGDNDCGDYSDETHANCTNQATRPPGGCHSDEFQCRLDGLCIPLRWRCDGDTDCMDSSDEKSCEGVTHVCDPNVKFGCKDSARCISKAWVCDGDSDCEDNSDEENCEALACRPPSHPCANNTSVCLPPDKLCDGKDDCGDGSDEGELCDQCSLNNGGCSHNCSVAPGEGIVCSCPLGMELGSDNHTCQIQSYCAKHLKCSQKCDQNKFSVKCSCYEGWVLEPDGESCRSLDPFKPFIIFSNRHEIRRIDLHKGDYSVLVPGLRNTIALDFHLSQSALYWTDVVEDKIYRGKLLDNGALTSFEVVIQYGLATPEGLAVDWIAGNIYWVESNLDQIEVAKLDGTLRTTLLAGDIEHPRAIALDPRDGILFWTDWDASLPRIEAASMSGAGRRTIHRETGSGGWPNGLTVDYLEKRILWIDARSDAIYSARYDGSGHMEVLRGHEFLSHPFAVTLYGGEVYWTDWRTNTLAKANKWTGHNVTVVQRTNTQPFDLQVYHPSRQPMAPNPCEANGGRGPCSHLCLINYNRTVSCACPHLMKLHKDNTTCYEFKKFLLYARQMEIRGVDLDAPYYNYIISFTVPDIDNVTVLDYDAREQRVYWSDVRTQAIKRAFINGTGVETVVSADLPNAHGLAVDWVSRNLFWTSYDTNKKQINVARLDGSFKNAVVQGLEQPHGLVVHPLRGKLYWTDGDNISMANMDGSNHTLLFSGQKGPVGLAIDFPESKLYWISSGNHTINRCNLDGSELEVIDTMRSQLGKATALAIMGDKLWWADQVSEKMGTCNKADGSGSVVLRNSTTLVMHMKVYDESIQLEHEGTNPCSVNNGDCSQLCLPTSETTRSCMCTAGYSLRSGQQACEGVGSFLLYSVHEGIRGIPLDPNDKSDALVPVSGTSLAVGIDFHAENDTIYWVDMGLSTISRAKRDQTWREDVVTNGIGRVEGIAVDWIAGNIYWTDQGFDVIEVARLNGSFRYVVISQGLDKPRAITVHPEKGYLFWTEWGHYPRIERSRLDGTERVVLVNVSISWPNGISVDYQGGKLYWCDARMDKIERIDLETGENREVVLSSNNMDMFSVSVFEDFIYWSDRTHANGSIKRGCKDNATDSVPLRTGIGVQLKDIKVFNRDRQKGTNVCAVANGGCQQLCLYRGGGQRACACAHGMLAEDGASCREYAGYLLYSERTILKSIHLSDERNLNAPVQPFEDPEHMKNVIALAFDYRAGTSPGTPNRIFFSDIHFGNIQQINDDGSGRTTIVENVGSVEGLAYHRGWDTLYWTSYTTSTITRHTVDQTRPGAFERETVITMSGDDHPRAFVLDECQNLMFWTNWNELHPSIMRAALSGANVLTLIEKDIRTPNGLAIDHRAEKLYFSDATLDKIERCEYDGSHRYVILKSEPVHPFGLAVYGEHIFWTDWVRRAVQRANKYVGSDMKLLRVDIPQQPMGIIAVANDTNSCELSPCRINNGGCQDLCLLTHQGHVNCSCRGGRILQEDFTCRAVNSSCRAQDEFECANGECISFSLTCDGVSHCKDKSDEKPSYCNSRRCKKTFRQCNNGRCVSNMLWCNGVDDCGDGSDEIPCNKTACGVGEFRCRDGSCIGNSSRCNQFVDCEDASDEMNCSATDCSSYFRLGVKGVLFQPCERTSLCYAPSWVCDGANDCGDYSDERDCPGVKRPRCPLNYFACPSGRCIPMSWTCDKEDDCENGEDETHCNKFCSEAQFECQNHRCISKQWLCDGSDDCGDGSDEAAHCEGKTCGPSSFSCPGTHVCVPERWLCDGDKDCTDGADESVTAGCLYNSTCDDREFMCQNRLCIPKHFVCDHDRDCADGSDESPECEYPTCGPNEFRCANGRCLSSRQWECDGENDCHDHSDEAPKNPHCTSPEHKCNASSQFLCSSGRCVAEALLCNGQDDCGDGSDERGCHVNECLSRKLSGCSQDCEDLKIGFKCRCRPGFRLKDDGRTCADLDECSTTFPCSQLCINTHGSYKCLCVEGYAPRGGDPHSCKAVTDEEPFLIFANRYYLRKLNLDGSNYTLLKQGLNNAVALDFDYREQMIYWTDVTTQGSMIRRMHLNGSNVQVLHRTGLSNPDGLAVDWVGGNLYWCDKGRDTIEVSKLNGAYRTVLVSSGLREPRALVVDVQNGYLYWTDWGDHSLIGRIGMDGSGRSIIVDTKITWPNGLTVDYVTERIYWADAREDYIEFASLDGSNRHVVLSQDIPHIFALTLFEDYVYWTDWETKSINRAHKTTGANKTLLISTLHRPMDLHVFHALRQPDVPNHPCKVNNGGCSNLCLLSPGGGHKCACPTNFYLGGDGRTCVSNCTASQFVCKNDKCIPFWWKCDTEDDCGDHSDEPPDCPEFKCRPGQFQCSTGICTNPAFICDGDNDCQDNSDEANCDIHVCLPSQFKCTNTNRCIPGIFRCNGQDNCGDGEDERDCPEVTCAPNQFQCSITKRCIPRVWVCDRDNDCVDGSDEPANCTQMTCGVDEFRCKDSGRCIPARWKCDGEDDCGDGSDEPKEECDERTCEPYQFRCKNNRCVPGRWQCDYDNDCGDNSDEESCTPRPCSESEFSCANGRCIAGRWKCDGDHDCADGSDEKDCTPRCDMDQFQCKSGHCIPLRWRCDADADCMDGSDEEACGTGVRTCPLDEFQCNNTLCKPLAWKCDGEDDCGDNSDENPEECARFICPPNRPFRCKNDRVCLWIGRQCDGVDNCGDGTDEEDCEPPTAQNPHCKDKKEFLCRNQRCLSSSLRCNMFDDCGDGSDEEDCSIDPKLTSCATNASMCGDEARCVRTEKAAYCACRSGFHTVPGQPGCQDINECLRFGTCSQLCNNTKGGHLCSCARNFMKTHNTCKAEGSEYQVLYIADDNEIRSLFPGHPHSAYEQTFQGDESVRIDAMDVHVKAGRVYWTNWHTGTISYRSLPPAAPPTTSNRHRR
# T2 sequence (Q91ZX7 3945-4545 limits assumed): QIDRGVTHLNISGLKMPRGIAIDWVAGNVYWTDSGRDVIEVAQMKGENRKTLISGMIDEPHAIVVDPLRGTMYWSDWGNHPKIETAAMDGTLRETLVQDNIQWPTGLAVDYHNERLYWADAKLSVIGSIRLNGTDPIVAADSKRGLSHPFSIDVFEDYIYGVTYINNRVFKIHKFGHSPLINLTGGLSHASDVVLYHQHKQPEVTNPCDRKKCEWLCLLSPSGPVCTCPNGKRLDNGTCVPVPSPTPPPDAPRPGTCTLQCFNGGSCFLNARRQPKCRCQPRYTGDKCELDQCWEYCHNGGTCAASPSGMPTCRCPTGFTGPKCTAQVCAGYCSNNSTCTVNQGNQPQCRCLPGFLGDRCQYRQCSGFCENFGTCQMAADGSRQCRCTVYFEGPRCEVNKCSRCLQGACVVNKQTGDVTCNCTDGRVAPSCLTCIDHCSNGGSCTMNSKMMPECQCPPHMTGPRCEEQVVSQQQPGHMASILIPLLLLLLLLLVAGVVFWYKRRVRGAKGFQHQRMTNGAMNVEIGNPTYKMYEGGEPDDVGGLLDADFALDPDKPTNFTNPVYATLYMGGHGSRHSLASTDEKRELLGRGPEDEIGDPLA
# Experimental: (§1) Polarized bEnd3 were washed twice with PBS, fixed in 4% (w/v) PFA in PBS for 15 min and permeabilized with 0.1% (w/v) Triton X-100 in PBS for 10 min. PLA was carried out by using Duolink probes and detection reagents according to the supplier’s instructions. Briefly, monolayers were incubated with Duolink blocking solution for 1 h at 37°C and then incubated with the two antibodies targeting each protein of interest overnight at 4°C. Subsequently, cells were incubated with Duolink PLA probes (anti-rabbit and anti-mouse) for 1 h at 37°C, washed and incubated with Duolink ligase and polymerase enzymes for 30 and 100 min, respectively. As a negative control, PLA protocol was followed with the exception of the addition of the primary antibodies to determine the specificity of the PLA probes. Nuclei were counterstained by incubation with DAPI for 10 min. Membranes were mounted in glass coverslips using Vectashield Mounting Media. Images were acquired using a Leica TCS SP8 confocal microscope, via sequential scan to reduce fluorophore bleed-through, with a 63× oil immersion objective. z-stacks (10–20 stacks per sample) were collected (20 optical sections) and fluorescence intensity of the PLA signal was quantified using ImageJ. The abundance of PLA signal was normalized by the number of nuclei in each z-stack image. List of antibodies in Supplementary material.
# Cell metabolic activity of BECs was assessed by using the RealTime-Glo™ MT Cell Viability Assay. Cells were seeded in 96-well plates at a density of 10 000 cells per well and incubated with Aβ assemblies at concentrations ranging 0.001–1 µM for 1 and 24 h. RealTime-Glo™ MT Assay was carried out according to the supplier’s instructions. […] To evaluate the effect of Aβ assemblies in the expression of LRP1, cells were treated for 2 h with Aβ at 10 µM and then, cells were collected and analysed by Western blotting, as described above.
# [2] = Thioflavin T (ThT) fluorescence assay of Aβ assemblies; assay type: physicochemical; conditions: Aβ preparation 10 µM in PBS with ThT 50 µM, 37°C, 450/485 nm; n = 3
# Experimental: Aβ assemblies were prepared according to previously described protocols.[48],[49] Briefly, Aβ (1–40) peptide was dissolved in hexafluoro-2-propanol at 1 mM, vortexed and bath sonicated to obtain a homogenous solution, and aliquoted to microcentrifuge tubes. HIPF was removed by overnight evaporation and, once all solvent was removed, Aβ (1–40) films were stored at −80°C until further processed. Peptide films were then resuspended in dimethyl sulfoxide (DMSO) to 5 mM, bath sonicated for 10 min and vortexed for 30 s. […] Immediately before use, the oligomeric solutions were centrifuged at 14 000 g for 10 min at 4°C (to remove any fibrils that might be present), and the supernatant was diluted to the final experimental concentration. […] Monomeric Aβ was obtained by dissolving the peptide directly in DMSO at 1 mM. […] Aβ assemblies were characterized by measuring ThT fluorescence and transmission electron microscopy (TEM). […] Briefly, each Aβ preparation (20 µl, 10 µM) was incubated with ThT solution (80 µl, 50 µM) at 37°C and then the fluorescence of ThT was measured at 450/485 nm in a 96-well plate using a Spark Multimode microplate reader (Tecan). […] Images were recorded using a direct detection camera K2 IS from Gatan working in counted mode to allow for the sensitive Aβ structures to be imaged at low electron doses without beam damage. […]
# LRP1/syndapin-2 = molecular target: T3, LRP1/syndapin-2 (Mus musculus, UniProt Q91ZX7); assay: Proximity ligation assay LRP1/syndapin-2 in BECs treated with Aβ; assay type: cell-based; conditions: Aβ assemblies at 100 nM for 15 min (Fig. 6B1)
# T3 construct: endogenous in cells; host or cells: bEnd3 (ATCC CRL-2299), polarized
# T3 sequence (Q91ZX7 20-3944 limits assumed): as the sequence (Q91ZX7 20-3944 limits assumed) above
# T3 sequence (Q91ZX7 3945-4545 partner limits assumed): as the sequence (Q91ZX7 3945-4545 limits assumed) above
# syndapin-2 = assay: Proximity ligation assay Aβ/syndapin-2 in BECs treated with Aβ assemblies; assay type: cell-based, mouse; conditions: Aβ assemblies at 100 nM for 15 min (Fig. 6C1)
# Experimental: as §1, with “Nuclei were counterstained by incubation with DAPI for 10 min. Membranes were mounted in glass coverslips using Vectashield Mounting Media.” left out, “The abundance of PLA signal was normalized by the number of nuclei in each z-stack image. List of antibodies in Supplementary material.” left out
# Cell metabolic activity of BECs was assessed by using the RealTime-Glo™ MT Cell Viability Assay. […] To evaluate the effect of Aβ assemblies in the expression of LRP1, cells were treated for 2 h with Aβ at 10 µM and then, cells were collected and analysed by Western blotting, as described above.
Reduction in the expression levels of LRP1 (LRP1),LRP1/Rab5 association (PLA) (LRP1/Rab5),LRP1 expression (LRP1),"LRP1/syndapin-2 interaction (PLA), comparison among assemblies (LRP1/syndapin-2)",Substance,Thickness of fibrils (TEM) [1],ThT fluorescence intensity (fibril structure) [2],Morphology (TEM) [1],Association of Aβ with syndapin-2 (PLA) (syndapin-2)
2 fold,favour LRP1/Rab5 association,,,"Aβ fibrils: Aβ (1–40) fibrils prepared in cold 10 mM HCl, incubated at 37°C for 24 h",~10 nm,characteristic increase in the fluorescence intensity of ThT,,
,favour LRP1/Rab5 association,unaltered,,Aβ monomers: Monomeric Aβ obtained by dissolving the Aβ (1–40) peptide directly in DMSO at 1 mM,,,small assemblies and agglomerates,
,decrease,unaltered,highest increase,"Aβ oligomers: Aβ (1–40) oligomers formed in PBS at 4°C for 24 h, supernatant after centrifugation",,,,more associated with syndapin-2
